Results published in US10800847.
Each block holds one substance with its values, some of them ahead of it.

Tests used:
[1] = target: Albumin (negative control beads) (human or bovine); assay: Luminex, iBeads (#6), 1:8
[2] = target: HLA-B*8201 (B82) (human); assay: Luminex, iBeads (#6), 1:8
[3] = target: HLA-Cw*0302 (Cw10) (human); assay: Luminex, iBeads (#6), 1:8
[4] = target: HLA-Cw*0303 (Cw9) (human); assay: Luminex, iBeads (#6), 1:8
[5] = target: HLA-Cw*0304 (Cw10) (human); assay: Luminex, iBeads (#6), 1:8
[6] = target: HLA-Cw*0501 (Cw5) (human); assay: Luminex, iBeads (#6), 1:8
[7] = target: HLA-Cw*0602 (Cw6) (human); assay: Luminex, iBeads (#6), 1:8
[8] = target: HLA-Cw*0702 (Cw7) (human); assay: Luminex, iBeads (#6), 1:8
[9] = target: HLA-Cw*0801 (Cw8) (human); assay: Luminex, iBeads (#6), 1:8
[10] = target: HLA-Cw*1203 (Cw12) (human); assay: Luminex, iBeads (#6), 1:8
[11] = target: HLA-Cw*1402 (Cw14) (human); assay: Luminex, iBeads (#6), 1:8
[12] = target: HLA-Cw*1502 (Cw15) (human); assay: Luminex, iBeads (#6), 1:8
[13] = target: HLA-Cw*1601 (Cw16) (human); assay: Luminex, iBeads (#6), 1:8
[14] = target: HLA-Cw*1701 (Cw17) (human); assay: Luminex, iBeads (#6), 1:8
[15] = target: HLA-Cw*1802 (Cw18) (human); assay: Luminex, iBeads (#6), 1:8
[16] = target: HLA-A*3001 (A30) single antigen on beads (human); assay: Luminex iBeads (#6), IVIg 1:8
[17] = target: HLA-A*3101 (A31) single antigen on beads (human); assay: Luminex iBeads (#6), IVIg 1:8
[18] = target: HLA-A*3303 (A33) single antigen on beads (human); assay: Luminex iBeads (#6), IVIg 1:8
[19] = target: HLA-A*3401 (A34) single antigen on beads (human); assay: Luminex iBeads (#6), IVIg 1:8
[20] = target: HLA-B*0702 (B7) (human); assay: Luminex iBeads (#6), IVIg diluted 1:8
[21] = target: HLA-B*0801 (B8) (human); assay: Luminex iBeads (#6), IVIg diluted 1:8
[22] = target: HLA-B*1301 (B13) (human); assay: Luminex iBeads (#6), IVIg diluted 1:8
[23] = target: HLA-B*1302 (B13) (human); assay: Luminex iBeads (#6), IVIg diluted 1:8
[24] = target: HLA-B*1402 (B65) (human); assay: Luminex iBeads (#6), IVIg diluted 1:8
[25] = target: HLA-B*1501 (B62) (human); assay: Luminex iBeads (#6), IVIg diluted 1:8
[26] = target: HLA-B*1502 (B75) (human); assay: Luminex iBeads (#6), IVIg diluted 1:8
[27] = target: HLA-B*1503 (B72) (human); assay: Luminex iBeads (#6), IVIg diluted 1:8
[28] = target: HLA-B*1510 (B71) (human); assay: Luminex iBeads (#6), IVIg diluted 1:8
[29] = target: HLA-B*1511 (B75) (human); assay: Luminex iBeads (#6), IVIg diluted 1:8
[30] = target: HLA-B*1512 (B76) (human); assay: Luminex iBeads (#6), IVIg diluted 1:8
[31] = target: HLA-B*1513 (B77) (human); assay: Luminex iBeads (#6), IVIg diluted 1:8
[32] = target: HLA-B*1516 (B63) (human); assay: Luminex iBeads (#6), IVIg diluted 1:8
[33] = target: HLA-B*1801 (B18) (human); assay: Luminex iBeads (#6), IVIg diluted 1:8
[34] = target: Serum albumin on negative control beads (HSA/BSA) (human or bovine); assay: Luminex iBeads (#6), IVIg diluted 1:8
[35] = target: HLA-A*2902 (A29) single antigen on beads (human); assay: Luminex, iBead vs regular bead, IVIg 1:8
[36] = target: HLA-A*3001 (A30) single antigen on beads (human); assay: Luminex, iBead vs regular bead, IVIg 1:8
[37] = target: HLA-A*3101 (A31) single antigen on beads (human); assay: Luminex, iBead vs regular bead, IVIg 1:8
[38] = target: HLA-A*3301 (A33) single antigen on beads (human); assay: Luminex, iBead vs regular bead, IVIg 1:8
[39] = target: HLA-A*3303 (A33) single antigen on beads (human); assay: Luminex, iBead vs regular bead, IVIg 1:8
[40] = target: HLA-A*3401 (A34) single antigen on beads (human); assay: Luminex, iBead vs regular bead, IVIg 1:8
[41] = target: HLA-A*3402 (A34) single antigen on beads (human); assay: Luminex, iBead vs regular bead, IVIg 1:8
[42] = target: HLA-A*3601 (A36) single antigen on beads (human); assay: Luminex, iBead vs regular bead, IVIg 1:8
[43] = target: HLA-A*6601 (A66) single antigen on beads (human); assay: Luminex, iBead vs regular bead, IVIg 1:8
[44] = target: HLA-A*6801 (A68) single antigen on beads (human); assay: Luminex, iBead vs regular bead, IVIg 1:8
[45] = target: HLA-A*6901 (A69) single antigen on Luminex beads (human); assay: Luminex single antigen bead assay, regular beads (#7), IVIg 1:8
[46] = target: HLA-A*7401 (A74) single antigen on Luminex beads (human); assay: as above
[47] = target: HLA-A*8001 (A80) single antigen on Luminex beads (human); assay: as above

MFI [1]: 7800 MFI
MFI [2]: -193 MFI
MFI [3]: 1770 MFI
MFI [4]: 1660 MFI
MFI [5]: 1820 MFI
MFI [6]: 2020 MFI
MFI [7]: 2110 MFI
MFI [8]: 2400 MFI
MFI [9]: 467 MFI
MFI [10]: 1950 MFI
MFI [11]: 1070 MFI
MFI [12]: 1200 MFI
MFI [13]: 1560 MFI
MFI [14]: 3250 MFI
MFI [15]: 1480 MFI
MFI [16]: 1340 MFI
MFI [17]: 0 MFI
MFI [18]: 517 MFI
MFI [19]: 3420 MFI
MFI [20]: 0 MFI
MFI [21]: 0 MFI
MFI [22]: 1030 MFI
MFI [23]: 0 MFI
MFI [24]: 0 MFI
MFI [25]: 53 MFI
MFI [26]: 91 MFI
MFI [27]: 0 MFI
MFI [28]: 347 MFI
MFI [29]: 1860 MFI
MFI [30]: 1420 MFI
MFI [31]: 841 MFI
MFI [32]: 1210 MFI
MFI [33]: 0 MFI
MFI [34]: 7800 MFI
Difference % (iBead MFI vs regular bead MFI) [35]: 253%
Difference % (iBead MFI vs regular bead MFI) [36]: 9%
Difference % (iBead MFI vs regular bead MFI) [37]: 0%
Difference % (iBead MFI vs regular bead MFI) [38]: 42%
Difference % (iBead MFI vs regular bead MFI) [39]: 189%
Difference % (iBead MFI vs regular bead MFI) [40]: 59%
Difference % (iBead MFI vs regular bead MFI) [41]: 0%
Difference % (iBead MFI vs regular bead MFI) [42]: 120%
Difference % (iBead MFI vs regular bead MFI) [43]: 166%
Difference % (iBead MFI vs regular bead MFI) [44]: 0%
MFI [45]: 2780 MFI
MFI [46]: 224 MFI
MFI [47]: 1680 MFI
Substance: IVIg Gamunex-C Lot NKLK1 (antibody)

MFI [1]: 7150 MFI
MFI [2]: 2730 MFI
MFI [3]: 4870 MFI
MFI [4]: 4290 MFI
MFI [5]: 4140 MFI
MFI [6]: 4010 MFI
MFI [7]: 4230 MFI
MFI [10]: 4810 MFI
MFI [11]: 3970 MFI
MFI [12]: 3590 MFI
MFI [13]: 4070 MFI
MFI [14]: 6150 MFI
MFI [15]: 3580 MFI
MFI [16]: 4470 MFI
MFI [17]: 3410 MFI
MFI [18]: 3330 MFI
MFI [21]: 1510 MFI
MFI [22]: 3560 MFI
MFI [23]: 1710 MFI
MFI [24]: 929 MFI
MFI [25]: 749 MFI
MFI [27]: 507 MFI
MFI [28]: 1450 MFI
MFI [29]: 3380 MFI
MFI [30]: 2810 MFI
MFI [31]: 2350 MFI
MFI [32]: 2400 MFI
MFI [33]: 1140 MFI
MFI [34]: 7150 MFI
Difference % (iBead MFI vs regular bead MFI) [35]: 243%
Difference % (iBead MFI vs regular bead MFI) [36]: 112%
Difference % (iBead MFI vs regular bead MFI) [37]: 1960%
Difference % (iBead MFI vs regular bead MFI) [38]: 163%
Difference % (iBead MFI vs regular bead MFI) [39]: 599%
Difference % (iBead MFI vs regular bead MFI) [40]: 47%
Difference % (iBead MFI vs regular bead MFI) [43]: 722%
MFI [45]: 2810 MFI
MFI [46]: 666 MFI
MFI [47]: 3190 MFI
Substance: IVIg Gamunex-C Lot NKLG1 (antibody)
